Laboratory results reported in patent US20050079559.

Target: bacterial recombinant GST-Smad3 (UniProt P84022)
Sequence (P84022 whole entry, looked up): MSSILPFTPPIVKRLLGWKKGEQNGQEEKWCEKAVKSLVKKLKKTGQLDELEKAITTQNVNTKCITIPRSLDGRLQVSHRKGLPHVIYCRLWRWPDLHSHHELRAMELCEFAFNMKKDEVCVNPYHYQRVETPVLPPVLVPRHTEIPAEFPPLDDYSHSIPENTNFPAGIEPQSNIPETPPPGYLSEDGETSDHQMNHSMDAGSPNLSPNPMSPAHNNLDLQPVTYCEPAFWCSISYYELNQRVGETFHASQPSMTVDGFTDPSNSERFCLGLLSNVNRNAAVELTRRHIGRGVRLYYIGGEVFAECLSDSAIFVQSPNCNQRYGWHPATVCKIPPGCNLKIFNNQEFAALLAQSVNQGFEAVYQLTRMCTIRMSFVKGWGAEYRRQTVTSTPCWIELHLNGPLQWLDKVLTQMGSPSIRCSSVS

Substance	phosphorylation of recombinant Smad3 in an in vitro kinase assay, detected by immunoblotting
phosphorylated (active) JNK	the linker region of Smad3 was directly phosphorylated by p38 and JNK
phosphorylated (active) p38	the linker region of Smad3 was directly phosphorylated by p38 and JNK
